Results reported in publication PMC7087056 (The Yale Journal of Biology and Medicine, 2020).

Target: T1, His6-K10^C401A-2B (human keratin 10 helix 2B domain with C401A, His6 tag kept) (human, UniProt P13645 337-456, C401A)
T1 sequence (looked up): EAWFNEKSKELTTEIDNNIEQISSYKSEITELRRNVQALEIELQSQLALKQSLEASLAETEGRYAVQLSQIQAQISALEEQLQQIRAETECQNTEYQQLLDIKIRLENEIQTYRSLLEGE
Assay: pull-down

B1: human keratin 1 helix 2B domain (K1-2B) (domain or fragment, UniProt P04264 370-489, looked up)
chain: ESLYQSKYEELQITAGRHGDSVRNSKIEISELNRVIQRLRSEIDNVKKQISNLQQSISDAEQRGENALKDAKNKLNDLEDALQQAKEDLARLLRDYQELMNTKLALDLEIATYRTLLEGE
  stoichiometry N: 1
